± gives the standard deviation of the averaged measurements.
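Note: PSI is a weighted mean of sequencing reads over stability bins, variants kept only with over 10 reads, mCherry proximal and sfGFP distal, peptide attached via GGGS linker.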

The test system of the data set is Saccharomyces cerevisiae. In words: protein stability index of tFT-peptide fusion (C-terminal peptide) (PSI (0-1 scale)); higher = more stable (slower turnover). As to conditions: genetic background: wild type; temperature: 30 C. The method, then:
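Multiplexed protein stability (MPS) profiling in S. cerevisiae. Random 12-aa peptides (tFT-X12 library) are fused to the C-terminus of a sfGFP-mCherry tandem fluorescent timer, after mCherry and a GGGS linker. Cells are FACS-sorted into 8 mCherry/sfGFP bins and deep-sequenced. The protein stability index (PSI) is the read-weighted bin average, scaled from 0 (unstable) to 1 (stable). Only peptides with >10 reads are reported; cells were grown at 30 °C in SC-His with glucose.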
Take GSYIPSPKKNKC: the protein stability index stood at 0.7086 ± 0.0029.

For the sequence GSYRSSPFKDPK, the protein stability index amounted to 0.686 ± 0.037.

GTDEWKRKYNTP registered a protein stability index of 0.695 ± 0.045. Under GTDSFQTTRRLI stands 0.663 ± 0.022; under GTGPPPSPPSLP, 0.683 ± 0.091.

GTHFRPAREERV came in with a protein stability index of 0.708 ± 0.039.

Consider GTHGQAQRVAGQ, for which the protein stability index stood at 0.7248 ± 0.0061. As to GTIEFNKIEDFW, the protein stability index amounted to 0.715 ± 0.039. GTLAAGGGVPMS displayed a protein stability index of 0.734 ± 0.034. Consider GTLARFLTHFNP, for which the protein stability index worked out at 0.666 ± 0.048.

With GTLRLLYLKTSK, the protein stability index turned out to be 0.651 ± 0.009. GTLSLAACLSEN had a protein stability index of 0.657 ± 0.077.

GTRAVSKLNPDA: the protein stability index came out at 0.701 ± 0.02. In the case of GTRRHSFCSGTG, the protein stability index was determined as 0.703 ± 0.054. GTSERKVLNRKR had a protein stability index of 0.764 ± 0.015. In the case of GTSVGVRRKGVK, the protein stability index was 0.708 ± 0.033. The result for GTTLDEPGESGR reads 0.621 ± 0.023; that for GVAAGPAVRVLT, 0.669 ± 0.032. As for GVAGGLLLRGGR, the protein stability index was determined as 0.673 ± 0.13. GVAYSIVKKKKK returned a protein stability index of 0.684 ± 0.036. Turning to GVCTGSFVFYLT, the protein stability index stood at 0.686 ± 0.016. As for GVEAGMGRTLWL, the protein stability index worked out at 0.792 ± 0.099.

Regarding GVEGAVGGRRGA, the protein stability index came to 0.703 ± 0.029. GVEGLGAFVTVQ gave a protein stability index of 0.702 ± 0.0089.

With GVENAHLFYLYL, the protein stability index amounted to 0.63579 ± 0.00058. Sequence GVEVCEGDGPLK displayed a protein stability index of 0.669 ± 0.015. Sequence GVGGGSSWVGYG showed a protein stability index of 0.912 ± 0.063. Take GVGGGVRLVVSR: the protein stability index stood at 0.633 ± 0.052. Under GVGGRVRDALGM stands 0.68 ± 0.066.

Regarding GVGLIGVLTCGL, the protein stability index was determined as 0.636 ± 0.02. The sequence GVGLVLLGVVSG returned a protein stability index of 0.513 ± 0.025. GVGRGCVLNGGG registered a protein stability index of 0.743 ± 0.018. The result for GVGVWQWERGRG reads 0.789 ± 0.1; that for GVICALPPVVGR, 0.685 ± 0.071. Sequence GVLGCNDGSVVE registered a protein stability index of 0.663 ± 0.059.

GVLRPVWVLGGS: the protein stability index worked out at 0.624 ± 0.017. Under GVLSLFLLDTSQ stands 0.7376 ± 0.0061. Sequence GVLVESGSVESR showed a protein stability index of 0.744 ± 0.12. GVPALLVGIDLV gave a protein stability index of 0.668 ± 0.027. In turn, GVPFSLGPPPSR came in with a protein stability index of 0.669 ± 0.022. GVPVVCGPPPFL came in with a protein stability index of 0.748 ± 0.091. Regarding GVQEGGGGARGG, the protein stability index was found to be 0.633 ± 0.023. The sequence GVRAPPSPVSGL had a protein stability index of 0.6711 ± 0.0066. For GVRGGGAVGGLR, the protein stability index amounted to 0.65 ± 0.056.

GVRHPRLMFSRS: the protein stability index stood at 0.687 ± 0.02. For the sequence GVRIGYCIVRDV, the protein stability index stood at 0.647 ± 0.022. GVRIVRRGLRRV yielded a protein stability index of 0.731 ± 0.013. As to GVRKGEESGVGW, the protein stability index is 0.717 ± 0.0085. Sequence GVSAGGAGLGGS returned a protein stability index of 0.773 ± 0.0031.

GVSAGLRGGGGA: the protein stability index was found to be 0.651 ± 0.022. GVSHKKGCPWLG showed a protein stability index of 0.641 ± 0.043. Sequence GVSKALAAAVDA displayed a protein stability index of 0.6874 ± 0.0061. As for GVSVSPVVHFFL, the protein stability index was 0.73 ± 0.062. The result for GVSWVGGRVFGG reads 0.6964 ± 0.0051. The result for GVVGGGVQGGMG reads 0.624 ± 0.0046; that for GVVRTSWGEALR, 0.7065 ± 0.0061; that for GVVRWGRVVGCF, 0.631 ± 0.084.

GVWQGVGVRGWG displayed a protein stability index of 0.83 ± 0.096. GWCALGVRAILY displayed a protein stability index of 0.651 ± 0.0097. Turning to GWCRVFLNFLMW, the protein stability index amounted to 0.61142 ± 0.00012. For the sequence GWCVGHSVLVVE, the protein stability index is 0.618 ± 0.021. GWGCARRRGGRV came in with a protein stability index of 0.683 ± 0.015. Turning to GWGGEGQNGSEG, the protein stability index worked out at 0.638 ± 0.019. GWGGFQFECGWV: the protein stability index was determined as 0.651 ± 0.059.

The values above are taken from the supplement of paper PMC10724198.
